Assay results published in the supplement of paper PMC10724198.

What was measured:
[1] = test system: Saccharomyces cerevisiae; test: protein stability index of tFT-peptide fusion in wild type (PSI (0-1 scale)); higher = more stable (slower turnover); settings: genetic background: wild type
Experimental: (§1)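 MPS profiling in S. cerevisiae of two library types built from selected 12-aa C-degron peptides (IN1, IN2, LN1, LN3, VN2, R1-R5, W1-W3, Atg1 and Rpa12 C-termini): saturation mutagenesis libraries and C-terminal +1 capping libraries (13 aa). Each peptide is fused to the C-terminus of a sfGFP-mCherry timer, after a GGGS linker. Cells are FACS-sorted into 8 mCherry/sfGFP bins and sequenced. PSI runs from 0 (unstable) to 1 (stable), measured once in wild type and in the das1Δ or doa10Δ background.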

[2] = test system: Saccharomyces cerevisiae; test: protein stability index of tFT-peptide fusion in deletion strain of DAS1 (PSI (0-1 scale)); higher = more stable (slower turnover)
Experimental: as §1
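Throughout, for protein stability index of tFT-peptide fusion in deletion strain of DAS1: PSI is a weighted mean of each variant's read distribution over the sorted stability bins, computed only for variants having over 10 reads in total.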
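Throughout, for protein stability index of tFT-peptide fusion in wild type: PSI derived as read-weighted mean over the 8 sorting bins, only variants exceeding 10 total reads kept, mCherry placed adjacent to the peptide and sfGFP distal.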

Sequence	protein stability index [1]	protein stability index [2]
PDKRNHLIKLKN	0.273	0.599
CTSCGYKFATNN	0.385	0.695
LKILRQKMSHQN	0.37	0.682
CTSCGYKFRTQN	0.201	0.663
LKGLRQKMNHQN	0.196	0.669
LKILRQKMNHQH	0.231	0.68
RLIQPLKVQFLN	0.054	0.805
FSMRWMFRYWVN	0.094	0.528
PDKRNHDIKLLN	0.407	0.606
RLIQPLPVQSLN	0.457	0.612
ARWRVGLWRGNS	0.553	0.68
CTSCGAKFRTNN	0.502	0.723
LSLAASFWRVVG	0.129	0.664
LKILRQKMNHQNC	0.606	0.661
LVVYLSEVACIN	0.264	0.286
ARWRVGLWRGAQ	0.411	0.679
LKIYRQKMNHQN	0.182	0.689
KKHKKGQKQNIN	0.618	0.54
LKILRQTMNHQN	0.224	0.677
LKILRVKMNHQN	0.187	0.646
CTSEGYKFRTNN	0.507	0.68
LKILRQKMNHFN	0.21	0.675
RLIQPLPVTFLN	0.0559	0.7

Sequence	protein stability index [1]	protein stability index [2]
LVVYLSCVANIN	0.0173	0.0788
PSLAACFWRVVG	0.141	0.675
VRGAVGGSRLVG	0.642	0.669
LVVYLSCVKCIN	0.146	0.319
RLIQPLPMQFLN	0.0399	0.636
FSMRWTFRMWVN	0.0197	0.31
CTSQGYKFRTNN	0.251	0.678
LIVYLSCVACIN	0.0145	0.0335
CRGAVGGWRLVG	0.163	0.647
KKHKKGAKQKIN	0.0819	0.608
KKHKKVQKQKIN	0.165	0.619
PTSCGYKFRTNN	0.219	0.677
KKHKKGQKQKINE	0.635	0.662
PSLAAHFWRVVG	0.155	0.694
CTKCGYKFRTNN	0.258	0.687
LVVWLSCVACIN	0.0122	0.0381
FFMRWTFRYWVN	0.0417	0.371
KKHKKRQKQKIN	0.0558	0.587
PSLAASFWRVVS	0.15	0.641
KKHKKGQKQKHN	0.439	0.653
KKHKKGQKQRIN	0.127	0.642
PSLAASFWRVVGC	0.664	0.685
LVVYLSCSACIN	0.0177	0.0361

Sequence	protein stability index [1]	protein stability index [2]
PSLAASFWPVVG	0.656	0.706
CTSCGYKFRQNN	0.497	0.69
ARWRVGFWRGAS	0.551	0.666
LVVVLSCVACIN	0.0126	0.0377
VRGAYGGWRLVG	0.114	0.664
PDKRNHLIKLLV	0.118	0.618
LKILRDKMNHQN	0.232	0.677
STSCGYKFRTNN	0.237	0.669
CTSCGYKFRTNR	0.696	0.692
KKHKKGQKQKIM	0.179	0.609
FSMPWTFRYWVN	0.11	0.598
RLCQPLPVQFLN	0.0327	0.612
CTSCGCKFRTNN	0.543	0.694
LSILRQKMNHQN	0.127	0.675
PSLAASFWRVVGY	0.658	0.684
LKILRQKMMHQN	0.232	0.62
PCLAASFWRVVG	0.128	0.68
CTSCGYKFRTCN	0.18	0.702
LRGAVGGWRLVG	0.149	0.681
VRGAVGGWRLVGI	0.664	0.679
LKILRQKMIHQN	0.196	0.682
LVVYLSCVADIN	0.108	0.168
LKILRQKKNHQN	0.312	0.678

Sequence	protein stability index [1]	protein stability index [2]
WVVYLSCVACIN	0.0879	0.0589
FSMRWRFRYWVN	0.0911	0.584
LVVYCSCVACIN	0.0182	0.0283
PDKRNHLIKLLM	0.112	0.586
GSLAASFWRVVG	0.147	0.689
KKHKKGQFQKIN	0.112	0.618
CTSCGYKCRTNN	0.601	0.661
FSMRWTFRYPVN	0.548	0.555
LIILRQKMNHQN	0.152	0.661
PQLAASFWRVVG	0.152	0.7
VNGAVGGWRLVG	0.141	0.68
DLIQPLPVQFLN	0.127	0.59
FSMIWTFRYWVN	0.0367	0.301
CTSCGYKFSTNN	0.684	0.713
CTTCGYKFRTNN	0.267	0.677
CTCCGYKFRTNN	0.294	0.676
LVVYLSCVAGIN	0.13	0.154
MRGAVGGWRLVG	0.146	0.653
RLIQPLPVQFEN	0.627	0.603
LKILWQKMNHQN	0.206	0.67
